Numbered stars: 1 amine (or outer) side, 2 acyl side, 3 side chain; on linkers, the order of the positions; unused ones are H or OH. Bridge positions count the residues as written; N and C are the ends. Side chains are listed from the residue outwards. Ends that are not written are not given here. * marks the point of attachment. C20 diacid = O=C(O)CCCCCCCCCCCCCCCCCCC(=O)*; γGlu = O=C(O)[C@H](CCC(=O)[*:2])N[*:1]

The results in this text go back to US20140087995A1 (published 2014).

To fix the notation:
T1: human calcitonin receptor (human, UniProt P30988 25-474)
T1 sequence (looked up): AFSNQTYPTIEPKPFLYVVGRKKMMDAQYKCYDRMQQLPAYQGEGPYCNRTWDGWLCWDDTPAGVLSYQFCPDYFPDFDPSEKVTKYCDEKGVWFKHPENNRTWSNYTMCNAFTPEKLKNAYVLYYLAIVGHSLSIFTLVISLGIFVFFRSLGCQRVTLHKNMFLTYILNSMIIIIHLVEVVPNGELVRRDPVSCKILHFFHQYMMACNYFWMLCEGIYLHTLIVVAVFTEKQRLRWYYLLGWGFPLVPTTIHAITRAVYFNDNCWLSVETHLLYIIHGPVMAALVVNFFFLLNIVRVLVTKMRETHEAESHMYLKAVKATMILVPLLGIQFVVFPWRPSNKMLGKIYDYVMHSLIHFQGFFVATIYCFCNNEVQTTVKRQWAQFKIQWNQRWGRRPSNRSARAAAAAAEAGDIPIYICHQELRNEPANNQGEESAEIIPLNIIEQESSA

T2: human amylin receptor (amylin 3(a) receptor: human calcitonin receptor plus RAMP-3) (human, UniProt P30988 25-474; O60896 24-148)
T2 sequence (looked up) 1: T1 sequence (looked up)
T2 sequence (looked up) 2: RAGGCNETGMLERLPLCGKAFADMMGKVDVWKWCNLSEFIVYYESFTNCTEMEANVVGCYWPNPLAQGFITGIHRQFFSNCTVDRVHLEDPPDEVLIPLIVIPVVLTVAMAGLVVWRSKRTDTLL

B1: N^ε1-[(4S)-4-carboxy-4-[[(4S)-4-carboxy-4-(19-carboxynonadecanoylamino)butanoyl]amino]butanoyl]-[Glu14,Arg17,Pro21,Pro27,Pro34,Glu35]-h-amylin (peptide)
peptide: K([γGlu-γGlu-C20 diacid])CNTATCATQRLAEFLRHSSPNFGAIPSSTNVGPETY-NH2
modifications: disulfide 2-7; N-terminus assumed
SMILES: CC[C@H](C)[C@H](NC(=O)[C@H](C)NC(=O)CNC(=O)[C@H](Cc1ccccc1)NC(=O)[C@H](CC(N)=O)NC(=O)[C@@H]1CCCN1C(=O)[C@H](CO)NC(=O)[C@H](CO)NC(=O)[C@H](Cc1c[nH]cn1)NC(=O)[C@H](CCCNC(=N)N)NC(=O)[C@H](CC(C)C)NC(=O)[C@H](Cc1ccccc1)NC(=O)[C@H](CCC(=O)O)NC(=O)[C@H](C)NC(=O)[C@H](CC(C)C)NC(=O)[C@H](CCCNC(=N)N)NC(=O)[C@H](CCC(N)=O)NC(=O)[C@@H](NC(=O)[C@H](C)NC(=O)[C@@H]1CSSC[C@H](NC(=O)[C@@H](N)CCCCNC(=O)CC[C@H](NC(=O)CC[C@H](NC(=O)CCCCCCCCCCCCCCCCCCC(=O)O)C(=O)O)C(=O)O)C(=O)N[C@@H](CC(N)=O)C(=O)N[C@@H]([C@@H](C)O)C(=O)N[C@@H](C)C(=O)N[C@@H]([C@@H](C)O)C(=O)N1)[C@@H](C)O)C(=O)N1CCC[C@H]1C(=O)N[C@@H](CO)C(=O)N[C@@H](CO)C(=O)N[C@H](C(=O)N[C@@H](CC(N)=O)C(=O)N[C@H](C(=O)NCC(=O)N1CCC[C@H]1C(=O)N[C@@H](CCC(=O)O)C(=O)N[C@H](C(=O)N[C@@H](Cc1ccc(O)cc1)C(N)=O)[C@@H](C)O)C(C)C)[C@@H](C)O
B2: N^ε1-[(4S)-4-carboxy-4-[[(4S)-4-carboxy-4-(19-carboxynonadecanoylamino)butanoyl]amino]butanoyl]-[Ser14,Arg17,Pro21,Pro27,Pro34,Glu35]-h-amylin (peptide)
peptide: K([γGlu-γGlu-C20 diacid])CNTATCATQRLASFLRHSSPNFGAIPSSTNVGPETY-NH2
modifications: disulfide 2-7; N-terminus assumed
SMILES: CC[C@H](C)[C@H](NC(=O)[C@H](C)NC(=O)CNC(=O)[C@H](Cc1ccccc1)NC(=O)[C@H](CC(N)=O)NC(=O)[C@@H]1CCCN1C(=O)[C@H](CO)NC(=O)[C@H](CO)NC(=O)[C@H](Cc1c[nH]cn1)NC(=O)[C@H](CCCNC(=N)N)NC(=O)[C@H](CC(C)C)NC(=O)[C@H](Cc1ccccc1)NC(=O)[C@H](CO)NC(=O)[C@H](C)NC(=O)[C@H](CC(C)C)NC(=O)[C@H](CCCNC(=N)N)NC(=O)[C@H](CCC(N)=O)NC(=O)[C@@H](NC(=O)[C@H](C)NC(=O)[C@@H]1CSSC[C@H](NC(=O)[C@@H](N)CCCCNC(=O)CC[C@H](NC(=O)CC[C@H](NC(=O)CCCCCCCCCCCCCCCCCCC(=O)O)C(=O)O)C(=O)O)C(=O)N[C@@H](CC(N)=O)C(=O)N[C@@H]([C@@H](C)O)C(=O)N[C@@H](C)C(=O)N[C@@H]([C@@H](C)O)C(=O)N1)[C@@H](C)O)C(=O)N1CCC[C@H]1C(=O)N[C@@H](CO)C(=O)N[C@@H](CO)C(=O)N[C@H](C(=O)N[C@@H](CC(N)=O)C(=O)N[C@H](C(=O)NCC(=O)N1CCC[C@H]1C(=O)N[C@@H](CCC(=O)O)C(=O)N[C@H](C(=O)N[C@@H](Cc1ccc(O)cc1)C(N)=O)[C@@H](C)O)C(C)C)[C@@H](C)O
notes: also called compound 120
B3: N^ε1-[(4S)-4-carboxy-4-[[(4S)-4-carboxy-4-(19-carboxynonadecanoylamino)butanoyl]amino]butanoyl]-[Glu14,Arg17,Pro23,Pro34,Glu35]-h-amylin (peptide)
peptide: K([γGlu-γGlu-C20 diacid])CNTATCATQRLAEFLRHSSNNPGAILSSTNVGPETY-NH2
modifications: disulfide 2-7; N-terminus assumed
SMILES: CC[C@H](C)[C@H](NC(=O)[C@H](C)NC(=O)CNC(=O)[C@@H]1CCCN1C(=O)[C@H](CC(N)=O)NC(=O)[C@H](CC(N)=O)NC(=O)[C@H](CO)NC(=O)[C@H](CO)NC(=O)[C@H](Cc1c[nH]cn1)NC(=O)[C@H](CCCNC(=N)N)NC(=O)[C@H](CC(C)C)NC(=O)[C@H](Cc1ccccc1)NC(=O)[C@H](CCC(=O)O)NC(=O)[C@H](C)NC(=O)[C@H](CC(C)C)NC(=O)[C@H](CCCNC(=N)N)NC(=O)[C@H](CCC(N)=O)NC(=O)[C@@H](NC(=O)[C@H](C)NC(=O)[C@@H]1CSSC[C@H](NC(=O)[C@@H](N)CCCCNC(=O)CC[C@H](NC(=O)CC[C@H](NC(=O)CCCCCCCCCCCCCCCCCCC(=O)O)C(=O)O)C(=O)O)C(=O)N[C@@H](CC(N)=O)C(=O)N[C@@H]([C@@H](C)O)C(=O)N[C@@H](C)C(=O)N[C@@H]([C@@H](C)O)C(=O)N1)[C@@H](C)O)C(=O)N[C@@H](CC(C)C)C(=O)N[C@@H](CO)C(=O)N[C@@H](CO)C(=O)N[C@H](C(=O)N[C@@H](CC(N)=O)C(=O)N[C@H](C(=O)NCC(=O)N1CCC[C@H]1C(=O)N[C@@H](CCC(=O)O)C(=O)N[C@H](C(=O)N[C@@H](Cc1ccc(O)cc1)C(N)=O)[C@@H](C)O)C(C)C)[C@@H](C)O
B4: N^ε-[(4S)-4-carboxy-4-(19-carboxynonadecanoylamino)butanoyl]Lys[Arg1,Arg17,Pro21,Pro27,His35]-h-amylin (peptide)
peptide: K([γGlu-C20 diacid])RCNTATCATQRLANFLRHSSPNFGAIPSSTNVGSHTY-NH2
modifications: disulfide 3-8; N-terminus assumed
SMILES: CC[C@H](C)[C@H](NC(=O)[C@H](C)NC(=O)CNC(=O)[C@H](Cc1ccccc1)NC(=O)[C@H](CC(N)=O)NC(=O)[C@@H]1CCCN1C(=O)[C@H](CO)NC(=O)[C@H](CO)NC(=O)[C@H](Cc1c[nH]cn1)NC(=O)[C@H](CCCNC(=N)N)NC(=O)[C@H](CC(C)C)NC(=O)[C@H](Cc1ccccc1)NC(=O)[C@H](CC(N)=O)NC(=O)[C@H](C)NC(=O)[C@H](CC(C)C)NC(=O)[C@H](CCCNC(=N)N)NC(=O)[C@H](CCC(N)=O)NC(=O)[C@@H](NC(=O)[C@H](C)NC(=O)[C@@H]1CSSC[C@H](NC(=O)[C@H](CCCNC(=N)N)NC(=O)[C@@H](N)CCCCNC(=O)CC[C@H](NC(=O)CCCCCCCCCCCCCCCCCCC(=O)O)C(=O)O)C(=O)N[C@@H](CC(N)=O)C(=O)N[C@@H]([C@@H](C)O)C(=O)N[C@@H](C)C(=O)N[C@@H]([C@@H](C)O)C(=O)N1)[C@@H](C)O)C(=O)N1CCC[C@H]1C(=O)N[C@@H](CO)C(=O)N[C@@H](CO)C(=O)N[C@H](C(=O)N[C@@H](CC(N)=O)C(=O)N[C@H](C(=O)NCC(=O)N[C@@H](CO)C(=O)N[C@@H](Cc1c[nH]cn1)C(=O)N[C@H](C(=O)N[C@@H](Cc1ccc(O)cc1)C(N)=O)[C@@H](C)O)C(C)C)[C@@H](C)O
notes: also called compound 44
B5: N^-1-[(4S)-4-carboxy-4-(19-carboxynonadecanoylamino)butanoyl]-Gly[Arg1,Arg17,Pro21,Pro27,His35]-h-amylin (peptide)
peptide: {C20 diacid-γGlu}-GRCNTATCATQRLANFLRHSSPNFGAIPSSTNVGSHTY-NH2
modifications: disulfide 3-8
SMILES: CC[C@H](C)[C@H](NC(=O)[C@H](C)NC(=O)CNC(=O)[C@H](Cc1ccccc1)NC(=O)[C@H](CC(N)=O)NC(=O)[C@@H]1CCCN1C(=O)[C@H](CO)NC(=O)[C@H](CO)NC(=O)[C@H](Cc1c[nH]cn1)NC(=O)[C@H](CCCNC(=N)N)NC(=O)[C@H](CC(C)C)NC(=O)[C@H](Cc1ccccc1)NC(=O)[C@H](CC(N)=O)NC(=O)[C@H](C)NC(=O)[C@H](CC(C)C)NC(=O)[C@H](CCCNC(=N)N)NC(=O)[C@H](CCC(N)=O)NC(=O)[C@@H](NC(=O)[C@H](C)NC(=O)[C@@H]1CSSC[C@H](NC(=O)[C@H](CCCNC(=N)N)NC(=O)CNC(=O)CC[C@H](NC(=O)CCCCCCCCCCCCCCCCCCC(=O)O)C(=O)O)C(=O)N[C@@H](CC(N)=O)C(=O)N[C@@H]([C@@H](C)O)C(=O)N[C@@H](C)C(=O)N[C@@H]([C@@H](C)O)C(=O)N1)[C@@H](C)O)C(=O)N1CCC[C@H]1C(=O)N[C@@H](CO)C(=O)N[C@@H](CO)C(=O)N[C@H](C(=O)N[C@@H](CC(N)=O)C(=O)N[C@H](C(=O)NCC(=O)N[C@@H](CO)C(=O)N[C@@H](Cc1c[nH]cn1)C(=O)N[C@H](C(=O)N[C@@H](Cc1ccc(O)cc1)C(N)=O)[C@@H](C)O)C(C)C)[C@@H](C)O
notes: also called compound 47

One assay concerns the target T1, human calcitonin receptor. The assay is described as follows: cell-based or functional assay.
Turning to B1, the “hCTR funct. EC50 (pM)” value stood at 2360 pM.

Consider B2, for which the “hCTR funct. EC50 (pM)” value was 887 pM.

Take K([γGlu-γGlu-C20 diacid])CNTATCATQRLAEFLRHSSPNFGAIPSSTNVGPHTY-NH2 (disulfide 2-7 (inferred)): the “hCTR funct. EC50 (pM)” value was found to be 2830 pM.

Turning to B3, the “hCTR funct. EC50 (pM)” value turned out to be 89600 pM.

For K([γGlu-γGlu-C20 diacid])CNTATCATQRLAEFLRHSSPNFGAILSSTPVGPETY-NH2 (disulfide 2-7 (inferred)), the “hCTR funct. EC50 (pM)” value amounted to 1280 pM.

As to B4, the “hCTR funct. EC50 (pM)” value was 4750 pM.

As for B5, the “hCTR funct. EC50 (pM)” value stood at 1320 pM.

A further assay concerns the target T2, human amylin receptor (amylin 3(a) …). Put plainly: cell-based or functional assay.
Consider B1, for which the “hAmylin-R funct. EC50 (pM)” value was 225 pM.

Take B2: the “Ratio hCT/hAmylin funct.” value worked out at 8.1 and the “hAmylin-R funct. EC50 (pM)” value worked out at 109 pM.

K([γGlu-γGlu-C20 diacid])CNTATCATQRLAEFLRHSSPNFGAIPSSTNVGPHTY-NH2 (disulfide 2-7 (inferred)): the “hAmylin-R funct. EC50 (pM)” value was found to be 172 pM.

On to B3, for which the “hAmylin-R funct. EC50 (pM)” value was 5170 pM.

For K([γGlu-γGlu-C20 diacid])CNTATCATQRLAEFLRHSSPNFGAILSSTPVGPETY-NH2 (disulfide 2-7 (inferred)), the “Ratio hCT/hAmylin funct.” value came out at 5.8 and the “hAmylin-R funct. EC50 (pM)” value was determined as 222 pM.

Turning to B4, the “Ratio hCT/hAmylin funct.” value turned out to be 24 and the “hAmylin-R funct. EC50 (pM)” value was determined as 198 pM.

For the molecule B5, the “Ratio hCT/hAmylin funct.” value turned out to be 6 and the “hAmylin-R funct. EC50 (pM)” value was determined as 222 pM.

The next assay shares this target. The assay is described as follows: SPA competition binding, displacement of 125I-rat amylin, membranes of BHK amylin 3(a)/CRE-luc cells. The procedure, abridged: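 Membranes from BHK Amylin 3(a)/CRE-luc cells (35 ng/μL final) were mixed with SPA beads and test compounds in 50 mM Hepes pH 7.4 with 1 mM CaCl2, 5 mM MgCl₂, 0.1% OA and 0.02% Tween20. Incubation ran 120 min at 25° C with shaking; IC₅₀ came from one-site competition fitting.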
B1: the IC50 was 0.121 nM.

As to B2, the IC50 is 0.076 nM.

K([γGlu-γGlu-C20 diacid])CNTATCATQRLAEFLRHSSPNFGAIPSSTNVGPHTY-NH2 (disulfide 2-7 (inferred)): the IC50 was 0.377 nM.

Take B3: the IC50 was 1.19 nM.

With K([γGlu-γGlu-C20 diacid])CNTATCATQRLAEFLRHSSPNFGAILSSTPVGPETY-NH2 (disulfide 2-7 (inferred)), the IC50 came out at 0.069 nM.

Take B4: the IC50 came out at 0.275 nM.

B5: the 50% inhibitory concentration (IC50) came to 0.344 nM.
